T1: alpha-s1 casein from Bos taurus
T1 chain: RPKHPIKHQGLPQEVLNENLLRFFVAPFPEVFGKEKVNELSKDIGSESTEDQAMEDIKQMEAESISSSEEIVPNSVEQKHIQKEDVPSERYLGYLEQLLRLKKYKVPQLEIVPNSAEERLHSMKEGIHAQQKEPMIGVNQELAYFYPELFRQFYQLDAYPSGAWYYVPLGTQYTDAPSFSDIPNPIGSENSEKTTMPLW


Molecular target: T1, alpha-s1 casein from Bos taurus

Protein	(αSN1-1)/(αSN1), 6 hours, 11° C.	(αSN1-1)/(αSN1), 24 hours, 11° C.	αs1-I CN, 6 hours, 11° C.	αs1-I CN, 24 hours, 11° C.	αs1 CN, 6 hours, 11° C.	αs1 CN, 24 hours, 11° C.	hydrolysis of the first cut in alpha-s1-casein	small, 6 hours, 11° C.	small, 24 hours, 11° C.	αs1-I CN/αs1 CN, 6 hours, 11° C.
camel chymosin variant #145 (F223I) (protein) GKVAREPLTSYLDSQYFGKIYIGTPPQEFTVVFDTGSSDLWVPSIYCKSNVCKNHHRFDPRKSSTFRNLGKPLSIHYGTGSMEGFLGYDTVTVSNIVDPNQTVGLSTEQPGEVFTYSEFDGILGLAYPSLASEYSVPVFDNMMDRHLVARDLFSVYMDRNGQGSMLTLGAIDPSYYTGSLHWVPVTLQQYWQFTVDSVTINGVAVACVGGCQAILDTGTSVLIGPSSDILKIQMAIGATENRYGEFDVNCGNLRSMPTVVFEINGRDYPLSPSAYTSKDQGFCTSGFQGDNNSELWILGDVFIREYYSVFDRANNRVGLAKAI	1.2	4.1	1.91e+07 Volume	1.17e+07 Volume	1.57e+07 Volume	2.8e+06 Volume				
camel chymosin variant #154 (D290M) (protein) GKVAREPLTSYLDSQYFGKIYIGTPPQEFTVVFDTGSSDLWVPSIYCKSNVCKNHHRFDPRKSSTFRNLGKPLSIHYGTGSMEGFLGYDTVTVSNIVDPNQTVGLSTEQPGEVFTYSEFDGILGLAYPSLASEYSVPVFDNMMDRHLVARDLFSVYMDRNGQGSMLTLGAIDPSYYTGSLHWVPVTLQQYWQFTVDSVTINGVAVACVGGCQAILDTGTSVLFGPSSDILKIQMAIGATENRYGEFDVNCGNLRSMPTVVFEINGRDYPLSPSAYTSKDQGFCTSGFQGMNNSELWILGDVFIREYYSVFDRANNRVGLAKAI	1.1	4.6	2.69e+07 Volume	3.77e+07 Volume	2.52e+07 Volume	8.3e+06 Volume				
camel chymosin variant #146 (Q288G) (protein) GKVAREPLTSYLDSQYFGKIYIGTPPQEFTVVFDTGSSDLWVPSIYCKSNVCKNHHRFDPRKSSTFRNLGKPLSIHYGTGSMEGFLGYDTVTVSNIVDPNQTVGLSTEQPGEVFTYSEFDGILGLAYPSLASEYSVPVFDNMMDRHLVARDLFSVYMDRNGQGSMLTLGAIDPSYYTGSLHWVPVTLQQYWQFTVDSVTINGVAVACVGGCQAILDTGTSVLFGPSSDILKIQMAIGATENRYGEFDVNCGNLRSMPTVVFEINGRDYPLSPSAYTSKDQGFCTSGFGGDNNSELWILGDVFIREYYSVFDRANNRVGLAKAI	0.9	2.3	2.17e+07 Volume	2.85e+07 Volume	2.38e+07 Volume	1.23e+07 Volume				
camel chymosin variant #155 (D290Q) (protein) GKVAREPLTSYLDSQYFGKIYIGTPPQEFTVVFDTGSSDLWVPSIYCKSNVCKNHHRFDPRKSSTFRNLGKPLSIHYGTGSMEGFLGYDTVTVSNIVDPNQTVGLSTEQPGEVFTYSEFDGILGLAYPSLASEYSVPVFDNMMDRHLVARDLFSVYMDRNGQGSMLTLGAIDPSYYTGSLHWVPVTLQQYWQFTVDSVTINGVAVACVGGCQAILDTGTSVLFGPSSDILKIQMAIGATENRYGEFDVNCGNLRSMPTVVFEINGRDYPLSPSAYTSKDQGFCTSGFQGQNNSELWILGDVFIREYYSVFDRANNRVGLAKAI	0.7	2.5	2.03e+07 Volume	3.36e+07 Volume	3.02e+07 Volume	1.35e+07 Volume				
camel chymosin variant #147 (Q288H) (protein) GKVAREPLTSYLDSQYFGKIYIGTPPQEFTVVFDTGSSDLWVPSIYCKSNVCKNHHRFDPRKSSTFRNLGKPLSIHYGTGSMEGFLGYDTVTVSNIVDPNQTVGLSTEQPGEVFTYSEFDGILGLAYPSLASEYSVPVFDNMMDRHLVARDLFSVYMDRNGQGSMLTLGAIDPSYYTGSLHWVPVTLQQYWQFTVDSVTINGVAVACVGGCQAILDTGTSVLFGPSSDILKIQMAIGATENRYGEFDVNCGNLRSMPTVVFEINGRDYPLSPSAYTSKDQGFCTSGFHGDNNSELWILGDVFIREYYSVFDRANNRVGLAKAI	1.1	3.3	2.28e+07 Volume	2.35e+07 Volume	2.15e+07 Volume	7e+06 Volume				
camel chymosin variant #153 (D290L) (protein) GKVAREPLTSYLDSQYFGKIYIGTPPQEFTVVFDTGSSDLWVPSIYCKSNVCKNHHRFDPRKSSTFRNLGKPLSIHYGTGSMEGFLGYDTVTVSNIVDPNQTVGLSTEQPGEVFTYSEFDGILGLAYPSLASEYSVPVFDNMMDRHLVARDLFSVYMDRNGQGSMLTLGAIDPSYYTGSLHWVPVTLQQYWQFTVDSVTINGVAVACVGGCQAILDTGTSVLFGPSSDILKIQMAIGATENRYGEFDVNCGNLRSMPTVVFEINGRDYPLSPSAYTSKDQGFCTSGFQGLNNSELWILGDVFIREYYSVFDRANNRVGLAKAI	1	4.9	2.35e+07 Volume	3.49e+07 Volume	2.36e+07 Volume	7.1e+06 Volume				
camel chymosin variant #149 (Q288R) (protein) GKVAREPLTSYLDSQYFGKIYIGTPPQEFTVVFDTGSSDLWVPSIYCKSNVCKNHHRFDPRKSSTFRNLGKPLSIHYGTGSMEGFLGYDTVTVSNIVDPNQTVGLSTEQPGEVFTYSEFDGILGLAYPSLASEYSVPVFDNMMDRHLVARDLFSVYMDRNGQGSMLTLGAIDPSYYTGSLHWVPVTLQQYWQFTVDSVTINGVAVACVGGCQAILDTGTSVLFGPSSDILKIQMAIGATENRYGEFDVNCGNLRSMPTVVFEINGRDYPLSPSAYTSKDQGFCTSGFRGDNNSELWILGDVFIREYYSVFDRANNRVGLAKAI	1	3.3	2.16e+07 Volume	2.25e+07 Volume	2.22e+07 Volume	6.7e+06 Volume				
camel chymosin variant #150 (Q288S) (protein) GKVAREPLTSYLDSQYFGKIYIGTPPQEFTVVFDTGSSDLWVPSIYCKSNVCKNHHRFDPRKSSTFRNLGKPLSIHYGTGSMEGFLGYDTVTVSNIVDPNQTVGLSTEQPGEVFTYSEFDGILGLAYPSLASEYSVPVFDNMMDRHLVARDLFSVYMDRNGQGSMLTLGAIDPSYYTGSLHWVPVTLQQYWQFTVDSVTINGVAVACVGGCQAILDTGTSVLFGPSSDILKIQMAIGATENRYGEFDVNCGNLRSMPTVVFEINGRDYPLSPSAYTSKDQGFCTSGFSGDNNSELWILGDVFIREYYSVFDRANNRVGLAKAI	0.6	1.3	1.83e+07 Volume	2.31e+07 Volume	2.87e+07 Volume	1.72e+07 Volume				
camel chymosin variant #148 (Q288N) (protein) GKVAREPLTSYLDSQYFGKIYIGTPPQEFTVVFDTGSSDLWVPSIYCKSNVCKNHHRFDPRKSSTFRNLGKPLSIHYGTGSMEGFLGYDTVTVSNIVDPNQTVGLSTEQPGEVFTYSEFDGILGLAYPSLASEYSVPVFDNMMDRHLVARDLFSVYMDRNGQGSMLTLGAIDPSYYTGSLHWVPVTLQQYWQFTVDSVTINGVAVACVGGCQAILDTGTSVLFGPSSDILKIQMAIGATENRYGEFDVNCGNLRSMPTVVFEINGRDYPLSPSAYTSKDQGFCTSGFNGDNNSELWILGDVFIREYYSVFDRANNRVGLAKAI	0.6	1.3	1.74e+07 Volume	2.62e+07 Volume	2.83e+07 Volume	2.03e+07 Volume				
camel chymosin variant #151 (D290A) (protein) GKVAREPLTSYLDSQYFGKIYIGTPPQEFTVVFDTGSSDLWVPSIYCKSNVCKNHHRFDPRKSSTFRNLGKPLSIHYGTGSMEGFLGYDTVTVSNIVDPNQTVGLSTEQPGEVFTYSEFDGILGLAYPSLASEYSVPVFDNMMDRHLVARDLFSVYMDRNGQGSMLTLGAIDPSYYTGSLHWVPVTLQQYWQFTVDSVTINGVAVACVGGCQAILDTGTSVLFGPSSDILKIQMAIGATENRYGEFDVNCGNLRSMPTVVFEINGRDYPLSPSAYTSKDQGFCTSGFQGANNSELWILGDVFIREYYSVFDRANNRVGLAKAI	1	2.5	2.29e+07 Volume	3.22e+07 Volume	2.31e+07 Volume	1.31e+07 Volume				
camel chymosin variant #152 (D290G) (protein) GKVAREPLTSYLDSQYFGKIYIGTPPQEFTVVFDTGSSDLWVPSIYCKSNVCKNHHRFDPRKSSTFRNLGKPLSIHYGTGSMEGFLGYDTVTVSNIVDPNQTVGLSTEQPGEVFTYSEFDGILGLAYPSLASEYSVPVFDNMMDRHLVARDLFSVYMDRNGQGSMLTLGAIDPSYYTGSLHWVPVTLQQYWQFTVDSVTINGVAVACVGGCQAILDTGTSVLFGPSSDILKIQMAIGATENRYGEFDVNCGNLRSMPTVVFEINGRDYPLSPSAYTSKDQGFCTSGFQGGNNSELWILGDVFIREYYSVFDRANNRVGLAKAI	0.9	3.4	2.18e+07 Volume	3.33e+07 Volume	2.51e+07 Volume	9.7e+06 Volume				
bovine chymosin B variant #1 (A51V) (protein) GEVASVPLTNYLDSQYFGKIYLGTPPQEFTVLFDTGSSDFWVPSIYCKSNVCKNHQRFDPRKSSTFQNLGKPLSIHYGTGSMQGILGYDTVTVSNIVDIQQTVGLSTQEPGDVFTYAEFDGILGMAYPSLASEYSIPVFDNMMNRHLVAQDLFSVYMDRNGQESMLTLGAIDPSYYTGSLHWVPVTVQQYWQFTVDSVTISGVVVACEGGCQAILDTGTSKLVGPSSDILNIQQAIGATQNQYGEFDIDCDNLSYMPTVVFEINGKMYPLTPSAYTSQDQGFCTSGFQSENHSQKWILGDVFIREYYSVFDRANNLVGLAKAI			1.88e+07 Volume	2.36e+07 Volume	2.05e+07 Volume	5.8e+06 Volume	show a clear hydrolysis of the first cut in alpha-s1-casein, leading to a rapid formation of fragment alpha-s1-I casein	0 Volume	0 Volume	0.9

Same assay, conditions: not given

Protein	αs1-I CN/αs1 CN, 24 hours, 11° C.
bovine chymosin B variant #1 (A51V) (protein) GEVASVPLTNYLDSQYFGKIYLGTPPQEFTVLFDTGSSDFWVPSIYCKSNVCKNHQRFDPRKSSTFQNLGKPLSIHYGTGSMQGILGYDTVTVSNIVDIQQTVGLSTQEPGDVFTYAEFDGILGMAYPSLASEYSIPVFDNMMNRHLVAQDLFSVYMDRNGQESMLTLGAIDPSYYTGSLHWVPVTVQQYWQFTVDSVTISGVVVACEGGCQAILDTGTSKLVGPSSDILNIQQAIGATQNQYGEFDIDCDNLSYMPTVVFEINGKMYPLTPSAYTSQDQGFCTSGFQSENHSQKWILGDVFIREYYSVFDRANNLVGLAKAI	4.1
